{"source": "paper PMC10745820", "about": "“Bode Phase Angle Signaling of a TB Disease Biomarker”", "target": "interferon gamma (IFN-γ) (UniProt P01579 24-161)", "sequence (P01579 24-161)": "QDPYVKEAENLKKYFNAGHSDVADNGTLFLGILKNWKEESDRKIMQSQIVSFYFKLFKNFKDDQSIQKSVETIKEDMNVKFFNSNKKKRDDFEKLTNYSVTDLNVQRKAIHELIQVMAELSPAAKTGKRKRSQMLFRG", "assay": "electrochemical impedance aptasensor (Bode phase angle); spiked pleural fluid, IFN-γ 0.2-2.2 pg/mL; linear 0.2-1.2 pg/mL; LOD 0.09 (abstract) or 0.11 pg/mL; no Kd; aptamer-free control sensor only slight change; Aptamer folded in 0.1 M phosphate buffer, 10 mM KCl, 2 mM MgCl2 (90 °C 10 min, 4 °C 5 min, RT 10 min); IFN-γ in spiked pleural fluid; EIS in phosphate buffer/PBS pH 7.4; binding temperature not stated", "details": "chain copies: 2", "data": [{"binder": "CGGCGAAGGCACGTGTGGGGTGGTCGCGT (ssDNA, 5' thiol (5ThioMC6-D, printed as 5thiolMCS-D))", "note": "[29-mer anti-IFN-γ aptamer]", "values": [{"measurement": "binding result", "value": "binds"}]}]}
